# Source: US20050059089A1 (priority 2003, published 2005)
# No end group written: not given here.
# B1: Porcine relaxin (ligand)
# chain 1: QSTNDFIKACGRELVRLWVEICGSVSWGRTAL
# chain 2: RMTLSEKCCQVGCIRKDIARLC
# notes: The results paragraph prints only 'relaxin'
# B2: Human INSL4 (ligand)
# chain 1: AELRGCGPRFGKHLLSYCPMPEKTFTTTPGGWL
# chain 2: SGRHRFDPFCCEVICDDGTSVKLCT
# B3: relaxin3 A-chain (peptide, UniProt Q8WXF3 119-142, looked up)
# peptide: DVLAGLSSSCCKWGCSKSEISSLC
# modifications: ends and bridges not checked; also: oxidized
# notes: domain: A-chain; Bought peptide; also called oxidized relaxin-3 A-chain peptide
# Biological target: T1, human GPCR142 (human, UniProt Q8TDU9 1-374)
# T1 construct: Expressed in COS-7, CHO, SK-N-MC or HEK293 cells
# Test: competition binding with ^125I-relaxin3, membranes of COS-7 cells expressing GPCR142
# Description: The binding mixtures were incubated at room temperature for 1 h and then were filtered through 96-well GFC plates (Packard) and washed with ice-cold washing buffer: 50 mM Tris-HCl, pH 7.4. Fifty microliters of Microscint-40 were added to each well and the plates were counted in a Topcounter NTX (Packard).
# T1 sequence (Q8TDU9 whole entry L329S): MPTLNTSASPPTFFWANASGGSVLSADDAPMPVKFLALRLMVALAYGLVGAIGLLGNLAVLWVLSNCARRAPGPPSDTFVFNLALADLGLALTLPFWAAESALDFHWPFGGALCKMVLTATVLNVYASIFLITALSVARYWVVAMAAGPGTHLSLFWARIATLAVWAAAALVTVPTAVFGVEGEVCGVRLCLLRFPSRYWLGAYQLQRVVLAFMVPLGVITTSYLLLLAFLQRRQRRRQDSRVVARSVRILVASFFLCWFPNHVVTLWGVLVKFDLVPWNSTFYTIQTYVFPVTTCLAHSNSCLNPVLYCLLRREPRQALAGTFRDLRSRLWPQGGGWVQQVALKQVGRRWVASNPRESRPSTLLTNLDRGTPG
row,Binder,binding result
1,B1,no binding
2,B2,no binding
3,B3,no binding
